Reference: publication PMC4192513, “A Novel Protein-Protein Interaction in the RES (REtention and Splicing) Complex*” (The Journal of Biological Chemistry, 2014)

T1: Snu17p (residues 1-113) (S. cerevisiae, UniProt P40565 1-113)
T1 construct: 15N- or 15N/13C-labelled for NMR; also called Snu17p RRM with N-terminal unstructured extension; source: E. coli BL21(DE3) pLysS, purified (Ni-NTA, TEV cleavage, second Ni-NTA, SEC Superdex 75); not shown: His6, N-terminal, cleaved; GST, N-terminal, cleaved
T1 sequence (looked up): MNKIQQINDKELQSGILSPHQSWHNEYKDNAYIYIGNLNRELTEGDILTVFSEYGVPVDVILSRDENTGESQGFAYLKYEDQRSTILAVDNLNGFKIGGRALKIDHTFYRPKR

B1: Bud13p peptide (residues 221-242) (peptide, UniProt P46947 221-242, looked up)
peptide: ENRFAIMPGSRWDGVHRSNGFE
notes: Bud13p, S. cerevisiae, residues 221-242; also called 22-mer Bud13p peptide; shorter Bud13p peptide; source: synthetic peptide, bought: Peptide Specialty Laboratories (Heidelberg), dialyzed
B2: Bud13p (residues 201-266) (domain or fragment)
chain: not shown
notes: also called 66-mer Bud13p peptide; very long Bud13p peptide; source: E. coli BL21(DE3) pLysS, purified (Ni-NTA, TEV cleavage, second Ni-NTA, SEC Superdex 75); not shown: His6, N-terminal, cleaved; GST, N-terminal, cleaved

How the values were obtained:
Snu17p (residues 1-113) [1] = target: T1, Snu17p (residues 1-113); assay: ITC; VP-ITC, 25 °C, NMR buffer (20 mM sodium phosphate pH 6.3, 25 mM NaCl, 2 mM DTT or TCEP); Snu17p (residues 1-113) 30-70 uM in the cell, Bud13p ligands 0.6-1.1 mM in the syringe; one- or two-step binding models; details: both partners purified
Snu17p (residues 1-113) [2] = target: T1, Snu17p (residues 1-113); assay: NMR titration; 1H,15N correlation (HSQC) spectra of 15N-labelled Snu17p (residues 1-113) on addition of Bud13p peptides; 298 K; 20 mM sodium phosphate pH 6.3, 25 mM NaCl, 2 mM DTT or TCEP; details: both partners purified

Binder	fold weaker dissociation constant than the longer Bud13p ligands (Snu17p (residues 1-113) [1]) [fold]	binding result (Snu17p (residues 1-113) [2])
B1	50	–
B2	–	binds
